This data set is described as follows: protease stability score; higher = more stable; yeast display proteolysis, trypsin and chymotrypsin.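 Note: log10 excess protease needed over predicted unfolded state with 0 meaning unfolded.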

With “DNKDQARRLLNELRKAMKQNDEDRMRQLMDPNARATYGDKTVHGREELAERIIKEVKRADHVDLQVDDIKTQGNKLTVEVTIRIDVNGKTINTRYVLYAEVSNGRFNIRQIHQQ”, the protease stability score was 0.544.

On to “DNKERAEDWFRHMTEIWKQNDPDELQNNADPNVRVDVGDKQVQGRDKYKTQMETFKNRADHISIELKNIDVQGERIVVNFEATYDVNGRKEDKTAHILARVHNGHIVIKEVKNG”, for which the protease stability score is -0.073.

“DNQDARKLQEYFRNMVTGNEQRAMQYMDKDVTVHVGDKVFHGMERAVKTLVQRLKEIRVHYKFKQVSVQGNKVNIKADVEEDDNGRPETKRLEMDVEWHNGKVKKVVIKNDR”: the protease stability score was determined as 1.49.

In the case of “DNRLQRWADRWLEVVETGNPEEIRKLVDKDVDVEIGDQQYKGQDHLSKQWKDFHKHAKLEIKDYKIDVEGDRLVINVDAVYNVNGQPRRNRYNLEFKLHNGKVRSVHFRIDPDEQRKMDS”, the protease stability score was 1.44.

As to “DNSELAQQRWRDLRKAISENDPKTARDLFDPNVRIEVGEKTLHGRKAASDFVKEIKKDYDHAYLQVTDVDVQGEHVHAHVVLHAEHNGKTTSVEMEMEAVFQGDKLRVRMMRKS”, the protease stability score was determined as 0.641.

In the case of “DNSVKKIVEEFWKAVKHGDPDKLRELADPNAKFDVGDKVLHGRDRAAKFLHDQHNNARFDITSLRIRVTNGRADIDVKLHVEHNGEPKTSSAKVIVRVRNGRMTELKIRERS”, the protease stability score was 0.637.

The sequence “DNTHLRMMEQLLKNRSTGDERKVRENADKHVKIDVGDKRLHGREHLQKQQESERTQADVEIQVQTIHDHNGQIVMQFEITVNVNGRPERDTWTLVAEADNGRLKKLSLDLDPDKLKTMES” had a protease stability score of 0.327.

As for “DNTIKRKFHDLIRAWQTNDENRYMQLFDPNVKIRVGNQQFHGREDWSKWFREQMTHLRNDFTVKSLEVDGDKVVADIVAVLSINGRPNKMRVDYRMTVHNGKIKSAEMRFSHEIETKIEQ”, the protease stability score amounted to 1.46.

With “DPKKAFKVAEEAMKYFVKGNVDELKKILNPDGTARVADHETKGVEEIMKLLQRMKKHGVQVEVKEVRREGNQVEVHTVYHDGDETATLTVQYKAQNGKVDHIKVQYNERMKKIWEKG”, the protease stability score was determined as 1.2.

“DPKKAHEVAEEVMKAFVNGNDEQVKRLLKPDVTAKVADRETQGPEQIVRYLRRFDKLGVQYHEEETRKEGNRVEVHTKYKKGDQEATVTVVYEADNGKVDRIEVRYDEEMKKLFEKG” displayed a protease stability score of 0.279.

Consider “DPKKDLKVAEEVLKAMYSGDDEKAQKLVDPSVKAQTGDQKYHGTDDIKKMVKTFKDYGVEHEEKETKVDGGYAEVVIQAKIGNDEVEAKWRVYAKDGRVDYVQADITEKLTKLMQHG”, for which the protease stability score was -0.445.

Turning to “DPKKFHKAAVLLAQAAMNGDYKRVVELYKPDARLTLVDQEVQGQEQIKKHAKKFYDRGKRFQFKRVEVTGDYVKLQFDIEVGGTRVTFEARVHAQDDTVDEYELRFDDTAREMQERG”, the protease stability score was 0.073.

For “DPKKLKEAVEKVIQAMEKGNVEEVVKLYKPDVKFVLGDQEFRGREDVKKQAKKFYTKGARFQLRKVEVKGDKVEVVVDVEVGGTRKTFKFTLKVEDDTVDEYEIRFTEEAKKAKEKG”, the protease stability score came out at 0.839.

In turn, “DPKKLYKVAIRVVRAAVSGDVEKVVKMYKPDGKLTLGDQELRGREQIKKYADKFYRKGKRFQADHIRVTGNRVEVIMKFTLGGQTVTFQFYIKLKDDQVDEYEFRFNEEAEKMMRTG” gave a protease stability score of 0.276.

“DPKKMKEIADKMAKAVLNGNEEEVKKFGAPNVEAEVADQRTQGVDEIVKMLQKVKRMGMEVHTEEKREEGDFIEVHTKYRRGDTEATMTVQYYADNGKVKKIKVEYDRDAKKLFKHG” returned a protease stability score of 0.232.

Take “DPKKVEDVAKKVAKAFQDGNEEELKKHLDPTGRAKIADEETQGIEQIIKKLKKVMKLGVQVENKETRYEGNRVEFHTEYRDGDKQATMTVVYHADNGKVKEIRVQYDRDAKEMYEKG”: the protease stability score was 0.658.

Turning to “DPKRTVKVAEEAAKILYNGDSDKAKKVFKPDLRVKIADRETQGVEQIVKELEKFQKIGVERETKEKRTEGDKVQFHTVYRNGSDQAKMTVEYQAKDGKVDRIQVDYDEKAKKIQEDG”, the protease stability score is -0.407.

Consider “DPKRVRQVAKEVAKAFLNGDKDKVKKYGDPNVKAKVLDEETQGVEQIMRELEKFMKLGVQYETKEVREEGDYVEVHTEYRDGDTTAKMTVIYKARDGKVEHLEVHYDRDARKIFRKG”, for which the protease stability score is 0.144.

“DPRKVKDAVRKVVEAMMNGDVEKIVKLYKPDGELYLGSQKVRGQEQVEKEAKKFYDKGARFQVKEQHVKGDNATVVFDMTANGQTVTFQFEIKVKDDTVDKYEVRFTEKADELRRKG” gave a protease stability score of -0.136.

Take “DPTELLKYAEKLLEALMKGDSELATKMGKPDVEVQTGDQKYKGQDDLRKVVKKIKDYGVENKIDETEKDGGQVKVKIVARIGDREYTFTWVAEAENGKVRKVQLDIPEDLEKDLKHG”: the protease stability score was 0.739.

“DPTKALRLADTALRAFANGNSDQVKQHLKPDVRARVVDEETQGVDQIVKQLQHFVKVGVQRQVDEVRHEGNQVEAHTQYQVGDNQATMTVVYRAQNGKVDEIEVRYDERAKKIFEQG” came in with a protease stability score of -0.115.

With “DPTKVDHVARRVLEYMVKGNAEEVRKMVKPNAEAQTGDQKYKGQDEIHKMVKTLKDYGIEVKRDEVRVDGGHAQLKIRANIGDRTYTARWQVEAKDGKVDRIQMDISEDLKKAIKHG”, the protease stability score was -0.022.

With “DQDAARIYKHQVEAIKTGNPSKVMELADPNVEFHVGDRVITGREQLRNDVDRHKKQMRVEIRIEDITDQGEFANIRANVTIDVNGRPKTSRVNMRVFAHNGKVKSQDFQTSQ”, the protease stability score worked out at 0.52.

On to “DQDAIRRLDEALRAEETGNEKQLKDLFDPNVEFVIGDDEYHGMDSYAKDVRRRKQNMRDHIEHVDMHDNGSQIHIRYRQVANINGTPVKYEITATAEVHNGRFKRMEYRIDEDEQRKLDS”, for which the protease stability score stood at 0.026.

“DQDALRKWEEILKAMETGDREKVAQLVDPNARVVYGDKEVRGRESIRKRVKEIRDELRFSMELKRFDDHNGRASATLKMNAEHNGQPIHRTASVEIEVQNGRIKSMEIQLRG”: the protease stability score came out at 0.062.

Sequence “DQDAQRQLREAMKDEESGDHRSIRENIDPNAKLDVGDKDVTGRENVAKEIKHQVDESRVKIDHYRMEVHGDRVTVTFNAVETHNGQPRRKTYQVIFKIHNGQFKKIMMRTSQ” showed a protease stability score of 0.546.

“DQDEIRQNARDLATGDPDRAREQADKHVRVEIGEKTLHGREKLEEWMKHIHERIDHNRVHDIQIDNGRVEASVNVDINGKKVVFTIVAEFDNGKIQRVQVDVRDHEVQKVMEEIDS” registered a protease stability score of 0.821.

“DQDEQRHQMEEVRKAFQRGDNEKFERLADPNVRYQVGDKTYHGREQASKALSDIREQVDHLEIKDYKIHGNKLDINVVVDINGEKHEYRIIVHIHNGRITRYQFQST” displayed a protease stability score of 0.73.

Regarding “DQDHEQKMMTRVAHAFDNGDDQSLARLMDPNVSVTVGDKSVHGRERVRELVNEWRHRVDHIKLDRVEHQGNKAKFHITVEHNGERDQVDLEIEARNGKVKNVVLHRP”, the protease stability score is 1.26.

For the sequence “DQDHLRELVHTFNRLLEQGNFDELANMFDKNARVDVGDKSYHGQEQVRTWFKHLRQRVDHFHVKHYKVRGDEATIHVIMDVNGQKRNVTVRLSFSNGRADHIQIDPDHKQELDK”, the protease stability score is 1.56.

With “DQDLHTRFKTWVENLHEGDEDNLKSLADPNAKIKVGNKEYHGMDEFKKDQKRRRDQMRIQIEIDSVTVQGNKATAEFEMTLDVNGKPVRMRFRVQFEVHNGTIQSWEAQVSPEQQEKLDR”, the protease stability score worked out at 0.967.

Sequence “DQDQMRKAEQAMRAEQKNNKEELDELFDPNVEVEVGDFNVEGREEMNKEVDDLKKQARFHWSLHHVEVRGNRMHFKLRFEIQVNGQPRKNTANVEIEAHNGKFTSKTNRIDPRFVKTLLG” showed a protease stability score of 0.55.

“DQDRLEEVRRRMTTGNPDDLRNLMDEDVTVQYGDKEVHGRDEAVDRLEKLLRQVDHLRIDSMDAHGDEFNVHLSAVVNGRQVNFVVSLRIHNGKIKHFMQQATDEDQQKRLEHAWD” returned a protease stability score of 1.23.

With “DQEAAEILKRFVKAIKTGDPDEAKEQMDKDVKVRVGDKVIHGREEVAKEVEQTNRNLRLEVEINDYTVDGDKVTIRMRIVTNENGRPDVKTVKVTAHAHNGRLVHLEIQSDS”, the protease stability score was determined as 0.778.

“DQEAAQDMRQWINAWNQNNPRKLRKLVDENARINIGEWHLQGRERIHKFAEKLIHEMDVQFSIKSFHVQGNKIKANLRIVANINGRPHEVNANLVVIVHNGHIKEIKATLDEDQIRHLNS” yielded a protease stability score of 0.648.

Take “DQEAHRVFNEFIKAITTGNPDRARQLADPNARFQVGDKRYHGMERYASTLKQQQNKMTQSLRVRDVDVKGDKIKVDAQSEMNHNGQPRRSQHNIDVNIQGDKIKRVRYTDDK”: the protease stability score is -0.454.

Sequence “DQEDKDSLEQILHTGDWVDAAKSADPNAQAEVGDKTWTGREQVEKVMKRLRDDIDHQEVKSVEIDGDKMHVDLTAHINGERMRITIEVKYSNGHLVKVVVKATDKEVEKHLKKLLD” displayed a protease stability score of 1.54.

“DQEDLKHLANVLRTGDWDRLRDLFDENARVKIGDKEVHGKEDAKKLAEQLKRSIDHMKISTWSITNGVLEMHFRVNVNGKTYEVQMELHAHNGRIKSMELHYRNREVKHVIKEMLD”: the protease stability score is 1.08.

Sequence “DQEDLRRIAEQVNRAFEKNDHDLMRRLADKDVKFHVGEKELTGRDNLARFLQEFRRRADHITVKSFDASNGRVNADIEIDVNGQKIKLHMQAEVHNGHIKHVRFHYTDEQQLRDFLS” returned a protease stability score of 1.24.

Take “DQEDQQRLAEQFMRALDEGDSDTIAKLLDPNARVIVGDKTVHGHRHARRVIHEFRNRVDRVDVRTVEVDNGHVRIEAVLNFNGQRTRFVYHLKIDNGRFKEMQLRSK”: the protease stability score is 0.892.

“DQEEAEKVMKQWMEAVQKGDEDTVRKLYDPNVEWINADTKEQDVEQFRKAIKKAKDKGVEFQVRKAKVEGDRVQMHYDVRIGNETVTFTVEMDVQGGKVEWLRVKVDEKARKALTKG” registered a protease stability score of 1.22.

In turn, “DQEEAERVVKRAIKALENGNSKELKDLGKEGVEYEFGDKKIHGPDALVKQFRTLQKKGVEMEFKEHHVEGDEAHTKVRYRNGDKENEATITATVKGGRIDRVQVNVPETIRKIVKHG” gave a protease stability score of -0.076.

“DQEEAKEVAEKVMKAVENGDEKKLKDLIDEGVKYEVGDTQQHGPEVAVKVVQYLQKKGVRLEFKEVQHHGNQVHTKIEYQNGDETDTVEATAEVKGGKIDQVQIHASETVVKWIKHG”: the protease stability score is 0.088.

“DQEEAKKIVDKMLKAVENGNEEDLVKMGADGVEYRAGDKKAHGPEAIQEVVQYLKRKGVEVEVKEVQVKGDKAQTHVDYKVGNETMTATANATLKGGKIDRVEIDFDETLKKVIKDG” returned a protease stability score of 0.154.

Take “DQEEAKKVAEQAIKYVENGNLTELMDMLKDGGEYQVADDKKHGKEVLYKLVKILQRLGVEVEFKRTEIEGNTVTTDVDYRLGDEEATAQAHAEVQGGRIDRVQIDADEHLKKWIKHG”: the protease stability score was determined as 0.606.

Take “DQEENQKIAERIVKIIQTGDNEKAMKQVDKNVRIRVGEKEYHGRESAREHIREQKEQFDHATVDDMKVQGNKIVLKMRLDVNGVDMDVVIKVTVKNGTIKELHVEYRDREDQQKIES”: the protease stability score worked out at 1.09.
